Data published in paper PMC10941548, “Tau induces inflammasome activation and microgliosis through acetylating NLRP3” (Clinical and Translational Medicine, 2024).

B1: Flag-mouse NLRP3 (GV362-EGFP-FLAG-mouse NLRP3), wild type (natural protein, UniProt Q8R4B8 1-1033, looked up)
chain: MTSVRCKLAQYLEDLEDVDLKKFKMHLEDYPPEKGCIPVPRGQMEKADHLDLATLMIDFNGEEKAWAMAVWIFAAINRRDLWEKAKKDQPEWNDTCTSHSSMVCQEDSLEEEWMGLLGYLSRISICKKKKDYCKMYRRHVRSRFYSIKDRNARLGESVDLNSRYTQLQLVKEHPSKQEREHELLTIGRTKMRDSPMSSLKLELLFEPEDGHSEPVHTVVFQGAAGIGKTILARKIMLDWALGKLFKDKFDYLFFIHCREVSLRTPRSLADLIVSCWPDPNPPVCKILRKPSRILFLMDGFDELQGAFDEHIGEVCTDWQKAVRGDILLSSLIRKKLLPKASLLITTRPVALEKLQHLLDHPRHVEILGFSEAKRKEYFFKYFSNELQAREAFRLIQENEVLFTMCFIPLVCWIVCTGLKQQMETGKSLAQTSKTTTAVYVFFLSSLLQSRGGIEEHLFSDYLQGLCSLAADGIWNQKILFEECDLRKHGLQKTDVSAFLRMNVFQKEVDCERFYSFSHMTFQEFFAAMYYLLEEEAEGETVRKGPGGCSDLLNRDVKVLLENYGKFEKGYLIFVVRFLFGLVNQERTSYLEKKLSCKISQQVRLELLKWIEVKAKAKKLQWQPSQLELFYCLYEMQEEDFVQSAMDHFPKIEINLSTRMDHVVSSFCIKNCHRVKTLSLGFFHNSPKEEEEERRGGRPLDQVQCVFPDTHVACSSRLVNCCLTSSFCRGLFSSLSTNRSLTELDLSDNTLGDPGMRVLCEALQHPGCNIQRLWLGRCGLSHQCCFDISSVLSSSQKLVELDLSDNALGDFGIRLLCVGLKHLLCNLQKLWLVSCCLTSACCQDLALVLSSNHSLTRLYIGENALGDSGVQVLCEKMKDPQCNLQKLGLVNSGLTSICCSALTSVLKTNQNFTHLYLRSNALGDTGLRLLCEGLLHPDCKLQMLELDNCSLTSHSCWNLSTILTHNHSLRKLNLGNNDLGDLCVVTLCEVLKQQGCLLQSLQLGEMYLNRETKRALEALQEEKPELTIVFEISW
notes: NOD-like receptor pyrin domain containing 3 (NLRP3), mouse, fusion with Flag; Plasmid from Genechem; also called GV362-EGFP-Flag-NLRP3; NLRP3-protein A/G agarose beads complexes; source: HEK-293T, transfected 48 h, immunoprecipitated with anti-Flag antibody on protein A/G agarose beads
B2: Tau–NLRP3-binding blocking (TNB) peptide (peptide)
peptide: LEDLEDVDLKKFKMHLEDYPP
notes: stretch of NLRP3 around K21/K22/K24 in the PYD domain; 2574.89 Da; An FITC-labelled form (FITC-TNB) was used only for microscopy; also called peptide TNB; source: synthetic peptide (Bioyeargene Biosciences, Fmoc solid-phase, purity 95.93%)

Legend:
[1] = target: T1, purified human WT full-length Tau protein (Tau441), His-tagged (human, UniProt P10636-8 1-441); experiment: pull-down; Flag-NLRP3 (WT or mutant) immunoprecipitated from HEK-293T with anti-Flag on protein A/G agarose beads; incubated with 50 nM purified Tau441 and 1 mM acetyl CoA at 37°C for 2 h in 50 mM HEPES pH 8.0, 10 mM sodium butyrate, 1 mM DTT, 10% glycerol; blot with anti-Tau5 and anti-NLRP3; conditions: both partners purified
T1 construct: also called purified Tau441 protein; recombinant Tau441; source: E. coli ROSETTA 2(DE3)PLYSS, purified (Ni-NTA) by HUABIO
T1 sequence (P10636 other isoform, or with tags, fused parts or gaps): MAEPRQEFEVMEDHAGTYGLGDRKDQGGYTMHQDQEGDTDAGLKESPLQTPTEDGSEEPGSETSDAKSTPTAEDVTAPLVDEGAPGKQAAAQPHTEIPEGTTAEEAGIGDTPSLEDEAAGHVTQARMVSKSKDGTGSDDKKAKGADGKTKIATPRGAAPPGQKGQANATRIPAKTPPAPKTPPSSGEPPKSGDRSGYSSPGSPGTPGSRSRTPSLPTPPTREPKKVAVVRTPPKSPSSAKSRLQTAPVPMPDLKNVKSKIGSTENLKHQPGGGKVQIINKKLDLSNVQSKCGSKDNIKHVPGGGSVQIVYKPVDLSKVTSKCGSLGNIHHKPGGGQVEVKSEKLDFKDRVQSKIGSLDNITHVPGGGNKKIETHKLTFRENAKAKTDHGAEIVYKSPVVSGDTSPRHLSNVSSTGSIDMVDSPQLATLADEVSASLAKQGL

[2] = target: T1, purified human WT full-length Tau …; experiment: co-IP; competition: TNB peptide (0, 25, 50, 100, 200 µM) and purified Tau441 added to LPS-pretreated BV-2 cells; loss of Tau in the anti-NLRP3 immunoprecipitate; conditions: both partners purified

| Binder | binding result [1] | binding result [2] |
| --- | --- | --- |
| B1 | binds | – |
| B2 | – | binds |
